As a reminder, the EC50 is the midpoint of the concentration-response curve.

This is an account of results in US20230192902A1 (published 2023).

The target in test [1] is T1, human ABCG2 (UniProt Q9UNQ0 1-655).
T1 chain: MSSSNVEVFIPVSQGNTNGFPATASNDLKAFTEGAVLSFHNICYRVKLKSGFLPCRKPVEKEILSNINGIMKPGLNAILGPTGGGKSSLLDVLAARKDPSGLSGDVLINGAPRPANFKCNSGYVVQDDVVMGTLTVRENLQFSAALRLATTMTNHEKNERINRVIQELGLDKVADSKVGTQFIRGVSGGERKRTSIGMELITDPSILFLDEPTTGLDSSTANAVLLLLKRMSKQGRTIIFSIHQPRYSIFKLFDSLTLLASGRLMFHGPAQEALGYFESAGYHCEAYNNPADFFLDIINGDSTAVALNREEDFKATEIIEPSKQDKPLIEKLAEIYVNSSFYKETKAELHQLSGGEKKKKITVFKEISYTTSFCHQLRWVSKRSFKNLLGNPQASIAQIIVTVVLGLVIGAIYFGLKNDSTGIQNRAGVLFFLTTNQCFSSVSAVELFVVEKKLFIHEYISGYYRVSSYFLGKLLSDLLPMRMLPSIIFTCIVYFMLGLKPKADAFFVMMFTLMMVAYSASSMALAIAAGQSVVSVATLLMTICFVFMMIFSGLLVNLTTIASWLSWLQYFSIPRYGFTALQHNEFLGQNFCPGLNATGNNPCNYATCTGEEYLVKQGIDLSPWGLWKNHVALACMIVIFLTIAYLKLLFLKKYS
Briefly: flow cytometry cell binding; 293T-G2OX cells. (In flow cytometry, cells or beads pass a laser one at a time.)

The target of the next test is human PD-L1 (human, UniProt Q9NZQ7 19-290). In words: flow cytometry cell binding; 293T-KT9OX cells.
Sequence of human PD-L1 (Q9NZQ7 19-290): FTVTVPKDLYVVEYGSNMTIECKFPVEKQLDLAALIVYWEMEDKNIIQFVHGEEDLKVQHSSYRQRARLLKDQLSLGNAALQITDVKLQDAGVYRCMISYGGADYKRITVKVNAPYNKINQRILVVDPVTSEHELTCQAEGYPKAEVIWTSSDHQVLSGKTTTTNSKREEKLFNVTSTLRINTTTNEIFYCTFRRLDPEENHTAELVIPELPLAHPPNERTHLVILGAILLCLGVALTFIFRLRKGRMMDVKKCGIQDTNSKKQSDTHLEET
Another test deals with 293T-G2KT9OX. In words: flow cytometry cell binding; cells expressing both ABCG2 and PD-L1.
Test [2] deals with T1, human ABCG2. In words: flow cytometry cell binding; 293T-G2OX cells.

Where a chain is given by its changes, count along the chain named. Where two headings read alike, the source gives them in different places.

B1: 5D3hVH-v1DD KT9KK 5D3hVL-v1 (bispecific antibody, V domains shown)
VH 1: EVQLQESGPGLVKPSETLSLTCTVSGFSITSDYAWNWIRQPPGKGLEWMGYINFDGGTTYNPSLRGRITISRDTSKNQFSLKLSSVTAADTAVYYCATFYGAKGTLDYWGQGTLVTVSS
VH 2: not shown
VL: DIQLTQSPSSLSASVGDRVTITCKASGYILNRLAWYQQKPGKAPKLLISGATSLETGFPSRFSGSGSGKDYTLTISSLQPEDFATYYCQQYWSTPWTFGGGTKLEIK
For B1, the values for the EC50 in the test with human ABCG2 [1] and with human PD-L1 were 7.1 nM and 4.18 nM, respectively.

B2: 5D3hVHv1DD KT9KK 5D3hVKv1 (bispecific antibody, V domains shown)
VH 1: B1 VH 1
VH 2: not shown
VL: B1 VL
As to B2, a half-maximal response in the test with 293T-G2KT9OX (EC50) required 10.8 nM.

B3: 5D3hVHv2 5D3hVKv1 (antibody, V domains shown)
VH: B1 VH 1 with M49I, I68V
VL: B1 VL
For B3, the EC50 with human ABCG2 [2] turned out to be 2.2 nM.

B4: 5D3hVHv1 5D3hVKv1 (antibody, V domains shown)
VH: B1 VH 1
VL: B1 VL
On to B4, for which, in the test with human ABCG2 [2], a half-maximal effect (EC50) was put at 2.2 nM.

B5: anti-ABCG2 antibody 5D3 (antibody, V domains shown)
VH: QVQLQESGPGLVKPSQSLSLTCTVTGFSITSDYAWNWIRQFPGKKLEWMGYINFDGGTTYNPSLRGRISITRDTSKNQFFLQLRSVTPEDTATYYCATFYGAKGTLDYWGQGTSVTVSS
VL: DIVLTQSPSSFSVSLGDRVTISCKASGYILNRLAWYQQKPGNAPRLLISGATSLETGFPSRFSGTGSGKDYTLSISSLQTEDVGTYYCQQYWSTPWTFGGGTKLEIR
In the test with human ABCG2 [2], B5 had an EC50 of 1.5 nM.
